B1: INTS4 (parent)
chain: AKQIMEETYKMEFMYSGVENKQVV
B2: ATL3 (parent)
chain: EKALASILLQDHIRDLDVVVVSVA
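Further: lentivirally expressed fusions sorted by FACS into six bins by GFP to DsRed ratio, PSI derived from sequencing read proportions per bin multiplied by bin number.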

In one data set the parent is B1. As to the kind of experiment: protein stability index of a GFP-peptide fusion (GPS, HEK-293T) (PSI 1-6); higher = more stable. The note with it: c terminus: a fixed tail appended.
For AKQIMEETYKMEFMYSGVETKQVV [N20T], the protein stability index was 1.36.
The same measure, in the same setting: the same measure for AKQIMEETYKMEFMYSGVENMQVV [K21M]: 2.07; for AKQIMEETYKMETMYSGVENKQVV [F13T]: 3.57; for AKQIMEETPKMEFMYSGVENKQVV [Y9P]: 3.78.
On the same count and under the same terms, the same measure for AKQHMEETYKMEFMYSGVENKQVV [I4H]: 2.04; for AKQIMEETYQMEFMYSGVENKQVV [K10Q]: 1.67.
On the same count and under the same terms, as for YKQIMEETYKMEFMYSGVENKQVV [A1Y], the figure is 2.1; as for NKQIMEETYKMEFMYSGVENKQVV [A1N], 2.1; as for DKQIMEETYKMEFMYSGVENKQVV [A1D], 3.46.
As to AKQIMEETYKMEFMYSGVENKQVY [V24Y], the protein stability index amounted to 2.01.
The same measure, in the same setting: the same measure for AKQIMEETYKMEFMYDGVENKQVV [S16D]: 1.86; for AKQIMEETYKMEFMYSGVENKNVV [Q22N]: 1.31; for AKQIMEETYKMEFMYSGSENKQVV [V18S]: 2.07.
Still for that read-out and setting: the same measure for AGQIMEETYKMEFMYSGVENKQVV [K2G]: 3.06; for ATQIMEETYKMEFMYSGVENKQVV [K2T]: 2.54; for AKQIMEYTYKMEFMYSGVENKQVV [E7Y]: 2.21.
On the same count and under the same terms, the same measure for AKQIMEEFYKMEFMYSGVENKQVV [T8F]: 1.64.
On to AKQIMEETYKMSFMYSGVENKQVV [E12S], for which the protein stability index came to 1.61.
Still for that read-out and setting: as for AKQIMEETYKMTFMYSGVENKQVV [E12T], the figure is 2.33.
The same measure, in the same setting: the same measure for AKQIREETYKMEFMYSGVENKQVV [M5R]: 2.87; for AKQIIEETYKMEFMYSGVENKQVV [M5I]: 1.08; for AKRIMEETYKMEFMYSGVENKQVV [Q3R]: 1.7.
Take AKDIMEETYKMEFMYSGVENKQVV [Q3D]: the protein stability index came out at 2.26.
On the same count and under the same terms, as for AKNIMEETYKMEFMYSGVENKQVV [Q3N], the figure is 1.68.

In another data set the parent is B2. Described as above. The note with it: c terminus: a fixed tail appended.
As for EKALASILLQDHIRDLDVVVVSGA [V23G], the protein stability index was determined as 3.31.
Still for that read-out and setting: as for EKALASILLQDHIRDLDVVVVSKA [V23K], the figure is 2.38; as for EKALASILLQDHIRDLDVVVVSHA [V23H], 1.19.
Still for that read-out and setting: as for EKALASILLQDHIRDLDVVVVSAA [V23A], the figure is 2.21; as for EKALASILLQDHIRDLDVVVVSNA [V23N], 2.32; as for EKALASILLQDHIRDLDVVVVSLA [V23L], 2.76.
Still for that read-out and setting: the same measure for EKALASILLQDHIRDLDVVVVSRA [V23R]: 1.41; for EKALASILLQDHIRDLDVVVVSSA [V23S]: 3.22; for EKALASILLQDHIRDLDVVVVSQA [V23Q]: 1.96.
For the variant EKALASILLQDHIRDLDVVVVSFA [V23F], the protein stability index turned out to be 3.83.
Still for that read-out and setting: the same measure for EKALASILLQDHIRDLDVVVVSDA [V23D]: 3.01; for EKALASILLQDHIRDLDVVVVSPA [V23P]: 2.45.
With EKALASILLQDHIRDLDVVVQSVA [V21Q], the protein stability index came out at 2.6.
Still for that read-out and setting: as for EKALASILLQDHIRDLDVVVYSVA [V21Y], the figure is 1.75; as for EKALASILLQDHIRDLDVVVTSVA [V21T], 1.62; as for EKALASILLQDHIRDLDVVVRSVA [V21R], 3.63.
On the same count and under the same terms, as for EKALASILLQDHIRDLDVVVPSVA [V21P], the figure is 2.56.
Still for that read-out and setting: the same measure for EKALASILLQDHIRDLDVVVISVA [V21I]: 2.63.
With EKALASILLQDHIRDLDVVVCSVA [V21C], the protein stability index amounted to 2.07.
On the same count and under the same terms, as for EKALASILLQDHIRDLDVVVASVA [V21A], the figure is 1.16; as for EKALASILLQDHIRDLDVVVSSVA [V21S], 1.81; as for EKALASILLQDHIRDLDVVVNSVA [V21N], 2.16.
Still for that read-out and setting: the same measure for EKALASILLQDHIRDLDVVVHSVA [V21H]: 1.51.
The same measure, in the same setting: the same measure for EKALASILLQDHIRDLDVVVDSVA [V21D]: 3.39; for EKALASILLQDHIRDLDHVVVSVA [V18H]: 1.06.
As for EKALASILLQDHIRDLDQVVVSVA [V18Q], the protein stability index was 1.59.
Still for that read-out and setting: as for EKALASILLQDHIRDLDNVVVSVA [V18N], the figure is 2; as for EKALASILLQDHIRDLDPVVVSVA [V18P], 2.34; as for EKALASILLQDHIRDLDIVVVSVA [V18I], 2.02.
On the same count and under the same terms, as for EKALASILLQDHIRDLDTVVVSVA [V18T], the figure is 3.46; as for EKALASILLQDHIRDLDEVVVSVA [V18E], 2.48.
Regarding EKALASILLQDHIRDLDYVVVSVA [V18Y], the protein stability index worked out at 3.61.
EKALASILLQDHIRDLDKVVVSVA [V18K]: the protein stability index was 2.27.
Same read-out and setting: the same measure for EKALASILLQDHIRDLDVVVVRVA [S22R]: 2.97; for EKALASILLQDHIRDLDVVVVPVA [S22P]: 1.91; for EKALASILLQDHIRDLDVVVVHVA [S22H]: 1.84.
The same measure, in the same setting: as for EKALASILLQDHIRDLDVVVVDVA [S22D], the figure is 2.35.
Still for that read-out and setting: the same measure for EKALASILLQDHIRDLDVVVVGVA [S22G]: 1.07; for EKALASILLQDHIRDLDVVVVLVA [S22L]: 2.02.
On to EKALASILLQDHIRDLDVVVVEVA [S22E], for which the protein stability index was 2.86.
Same read-out and setting: as for EKALASILLQDHIRDLDVNVVSVA [V19N], the figure is 1.72; as for EKALASILLQDHIRDLDVKVVSVA [V19K], 1.96; as for EKALASILLQDHIRDLDVGVVSVA [V19G], 2.25.
Same read-out and setting: the same measure for EKALASILLQDHIRDLDVRVVSVA [V19R]: 2.19; for EKALASILLQDHIRDLDVAVVSVA [V19A]: 1.64; for EKALASILLQDHIRDLDVCVVSVA [V19C]: 4.35.
For EKALASILLQDHIRDLDVSVVSVA [V19S], the protein stability index came out at 2.01.
Regarding EKALASILLQDHIRDLDVDVVSVA [V19D], the protein stability index was 3.81.
The same measure, in the same setting: as for EKALASILLQDHIRDLDVPVVSVA [V19P], the figure is 2.52; as for EKALASILLQDHIRDLDVQVVSVA [V19Q], 1.42; as for EKALASILLQDHIRDLDVHVVSVA [V19H], 2.29.
The same measure, in the same setting: the same measure for EKALASILLQDHIRDLDVVPVSVA [V20P]: 3.2; for EKALASILLQDHIRDLDVVEVSVA [V20E]: 2.89.
Still for that read-out and setting: the same measure for EKALASILLQDHIRDLDVVQVSVA [V20Q]: 2.1; for EKALASILLQDHIRDLDVVMVSVA [V20M]: 1.82.
In the case of EKALASILLQDHIRDLDVVRVSVA [V20R], the protein stability index came out at 2.2.
On to EKALASILLQDHIRDLDVVDVSVA [V20D], for which the protein stability index worked out at 2.79.
Still for that read-out and setting: as for EKALASILLQDHIRDLDVVAVSVA [V20A], the figure is 1.58.
In the case of EKALASILLQDHIRDLDVVNVSVA [V20N], the protein stability index is 3.1.
Same read-out and setting: as for EKALASILLQDHIRDLDVVLVSVA [V20L], the figure is 3.35; as for EKALASILLQDHIRDLDVVWVSVA [V20W], 3.67.
The same measure, in the same setting: the same measure for EKALASILLQDHIRDLDVVKVSVA [V20K]: 2.79; for EKALASILLQDHIRDLDVVHVSVA [V20H]: 2.18; for EKALASILLQDHIRDLDVVTVSVA [V20T]: 1.89.
On the same count and under the same terms, as for EKALASILLQDHIRDLDVVYVSVA [V20Y], the figure is 2.34; as for EKALASILLQDHIRDLDVVVVSVP [A24P], 2.53; as for EKALASILLQDHIRDLDVVVVSVG [A24G], 2.39.
For the variant EKALASILLQDHIRDLDVVVVSVC [A24C], the protein stability index came out at 4.82.
Same read-out and setting: the same measure for EKALASILLQDHIRDLDVVVVSVM [A24M]: 1.8; for EKALASILLQDHIRDLDVVVVSVN [A24N]: 2.01.

Values taken from the supplement of paper PMC10567573.
